167 variants from the RNAGym collection of RNA variant scans (doi:10.7554/elife.90254) can be followed below.

First the molecules themselves.
B1: OR4K15 (parent)
chain: GUUAACGGUCAUAGGCCAUGGAAACUAGGAGCACCAUUUCGCUGCCAGUGAAGAAAUGAACAAAGAAAAUCUGGGCCAGGCAGGCAUCAAAAGAAAUAGUCUUGCGCUCAACCAGAAAGUCUGUAAUCAUUUUAAGGGUA

This data set covers variants of B1. The data set can be described thus: self-cleavage, relative activity (ratio to wild type); higher = more cleavage; in vitro, sequencing; the parent is a self-cleaving ribozyme.
Take A69U A96G: the self-cleavage stood at 2.35.
Turning to U70A C77U, the self-cleavage was found to be 2.04.
As for A5G U72C, the figure is 0.41; as for A24G A60U, 1.08; as for A68G U87C, 1.12.
As for U72A U124G, the figure is 0.12.
As for U26A U57G, the figure is 0.97.
Take A22C A89C: the self-cleavage was 1.57.
As for A89U A117G, the figure is 2.46.
Next, G80A A125U: 0.24; U57C A114U: 0.05; A78C A82G: 0.11.
Next, A5G U12C: 1.02; A69G U131C: 0.55.
In the case of U37C A63G, the self-cleavage stood at 0.79.
Next, U37C C101A: 0.22.
As for C81A A86G, the figure is 0.16; as for A62G G80A, 0.35; as for G7U U57C, 1.41.
As for G7A U122C, the figure is 0.84; as for G119U, 1.82.
Turning to C10A A96G, the self-cleavage stood at 1.33.
Next, A63G A82U: 0.24; U102C A135C: 1.02; A4G A114C: 0.17.
Next, C112A A125G: 0.01.
Next, C109U A114G: 0.2.
As to A30U U37C, the self-cleavage stood at 0.84.
As for A62G C81U, the figure is 0.26.
Consider A66G A95U, for which the self-cleavage is 0.2.
Next, U38A A89U: 2.11; C45U A126G: 0.97.
Next, A63U U108C: 0.01; A78U U120A: 0.18; G83A U87C: 1.21.
Next, C45U A56C: 0.67; U43C A116G: 0.53; A56U C128A: 1.6.
As for A33G A118U, the self-cleavage was found to be 0.47.
Next, A66G G83C: 0.2.
On to A94G U133C, for which the self-cleavage was determined as 2.11.
Next, U39C A94C: 1.43; U43A A135G: 1.91.
Next, A82U A86U: 0.32; C85U A140G: 1.26.
As for A33U A140G, the figure is 2.18.
G74C U127C: the self-cleavage is 0.13.
As for A82U A125C, the figure is 0.29; as for U70C U127C, 0.35; as for A55G U108G, 0.03.
Turning to U12C A54G, the self-cleavage worked out at 1.22.
Next, A33G U72C: 0.12; U39C A51U: 2.29; A22U U87C: 0.88.
Next, A66U A89G: 1.7; G8A U19A: 1.92; A18U G104A: 0.05.
As for C17A U43A, the figure is 1.18; as for A96G A110U, 1.53.
Take A23C U130C: the self-cleavage was 0.85.
Next, U39A A66U: 1.74; A36G A96G: 1.13; A69U A111G: 0.04.
Next, U2C G41A: 1.29; U70G A94G: 1.61.
Consider U26C A59G, for which the self-cleavage came to 0.96.
Next, C45U U122G: 2.74; U2C U72A: 0.1.
For the variant A66C U132C, the self-cleavage was 1.6.
As for A23U U39C, the figure is 1.27.
Next, A55C U57A: 1.84; U26A A27G: 0.9.
Take U43C A91U: the self-cleavage is 1.88.
Next, A110G G138U: 0.13.
Next, U43C A51G: 1.14; U72G U97G: 0.3.
Next, G14A U19C: 1.44; A94G U131C: 0.66.
In the case of U108A U132C, the self-cleavage was determined as 0.03.
As for U9A A64G, the figure is 1.1; as for G14A U43C, 0.99; as for A116G U130A, 0.51.
As for A54G A91C, the figure is 1.05; as for G7U C77U, 1.9; as for A30G A86U, 1.37.
As for A89U U139A, the figure is 1.49.
For U102A U108C, the self-cleavage was found to be 0.
As for U26A A114G, the figure is 0.2; as for A27G U72C, 0.38; as for G65U G83U, 0.44.
Next, A33G A56C: 0.41; U38C A78G: 0.2; A60G U108A: 0.02.
As for A13G A126G, the figure is 1.04; as for A56G, 0.72; as for A92G A135C, 0.84.
On to U37G U132C, for which the self-cleavage turned out to be 0.78.
As for A23G U127C, the figure is 0.79.
As for U57A U100C, the self-cleavage worked out at 2.19.
As for U9C A90U, the figure is 2.21; as for A23G G48A, 1.29; as for U57C C105U, 0.15.
Next, A22G A116U: 0.35; A69U A117G: 1.48.
A11U U97C: the self-cleavage was found to be 0.56.
Next, A30G A59U: 1.18; A27G A52C: 1.41.
As for A56U U97C, the figure is 1.16; as for U72A C76U, 0.28.
Next, G28U U49A: 2.04; A66G A89U: 1.97.
For A11G U12A, the self-cleavage is 1.21.
As for A62G U120G, the self-cleavage was determined as 0.84.
As to U49C G79A, the self-cleavage stood at 0.13.
As for G99A U103C, the figure is 0.07; as for C88U A129G, 1.65; as for A23G A129G, 0.35.
Next, A47C: 0.88.
With A47U U70C, the self-cleavage was 0.13.
A11G A134C: the self-cleavage was found to be 0.5.
Next, U102A A110G: 0.1; A69U A92G: 2.17; A47G A125G: 0.28.
As for C17U A54G, the figure is 1.02; as for C109U A125G, 0.17; as for A18G A116U, 0.75.
As for U72A U87A, the figure is 0.37; as for C46U A117G, 2.01; as for C34A A89G, 1.66.
For the variant A54G A68U, the self-cleavage worked out at 1.91.
As to U122A A129G, the self-cleavage turned out to be 1.38.
Next, A5C A23G: 1.28; U102A A125G: 0.42; A11G A92C: 0.7.
Consider G29C A91G, for which the self-cleavage is 1.08.
Next, U133A: 1.32; G74A A117U: 0.19.
As for A30U A55G, the figure is 1.55.
Next, A67G A140C: 1.47.
With A62G A68U, the self-cleavage amounted to 1.33.
As to G79U, the self-cleavage came to 0.06.
As for G50U A116G, the figure is 0.75; as for U38A A56G, 0.94.
As for A51C U72A, the figure is 0.19; as for A60C U72A, 0.21.
Regarding A36U G123A, the self-cleavage is 1.73.
As for A47U A66U, the self-cleavage stood at 0.99.
As for U49A A135G, the figure is 1.08.
In the case of U9C C88U, the self-cleavage worked out at 1.34.
G28U A134C: the self-cleavage turned out to be 2.09.
Next, A18G U100C: 2.34.
Next, A114U A125G: 0; G73A A90G: 0.03; A52G G106C: 0.02.
As for A5U U97C, the figure is 0; as for U49C U120A, 1.64; as for A30U U39C, 0.9.
C42U A95G: the self-cleavage is 2.84.
With A24U A51G, the self-cleavage was 1.78.
As for G7U A117G, the figure is 1.7.
As for U3C A59G, the figure is 1.17; as for A24U A33G, 1.14.
Next, A23U A30G: 1.09.
As to U43A A68G, the self-cleavage was 1.25.
Consider A98C U100C, for which the self-cleavage was found to be 2.44.
As for A24G U139A, the figure is 1.53; as for A55G A94C, 1.34.
